Measurements as given in the DeepSol protein solubility set.

Experiment: soluble on expression in E. coli; label from the status in PepcDB or PDB records

Sequence | soluble on expression in E. coli
MNPSPSIAGLSDIEALERVPLEQRDLPSSTYELLQRSARRHGQRIALSCLLHGSAAEEPLRISYAELFARVTQTANALHRLGLESHQAVSFLLPNLPQTHYVIWGGEAAGIVNAINPLLEPEHIAELIRASNTRVLVTLAPFPGTDLWQKVAGLRAQLPELYAIVVVDPANLLPAPQREALKAQRGPLPEGVLDFDTLIADCPADRLESGRAIHPDDVASYFHTGGTTGTPKLAPHSHFNEVAMAEIMGLNADYGVDDVLLCGLPLFHVNGVMVTGLAPFHRGAQVLLAGPQGYRNPTLIQDFWKLVERYRVTSFSGVPTIYAALLQVPSDGRDLSSLRFALCGAAPMPVELIRQFEARTGLKVIEGYGLTEGTCGTSCNPRGGERRPGSIGLRLPYCQVKVAVLDGEGNYLRDAAPNEVGNLCLKGPTVFKGYLQQDRNRDIWIGDGWFNTGDLGRIDEDGYIWLTGRSKDLIIRGGHNIDPQMIEEALHRHPAVALAAAVGKPDAKAGELPVAYIQLKPGASASEEELLEHASRHVPERAAVPKDIWLIESMPVTAVGKTFKPALRLDAIRRVLEEESRRIAEDIRVEVVADERHGQLAHLHVPALDERRQAALEELLGGYALNYRL | not soluble
MTDFDIDTSAANYADELALLGVTGAMSYAPKGTQMPETIAPLNPPFVDFGWLSDGGITESQNEERNDWTPFQSTNPIRGQVTKQDFQFKTVVWSISGLANAMYYGVPESDMRFDQETGVTTFEQGKELPPDFKFGLVVDIVDGGKARRHCMPNVSVVERGDIVYSKDDLVGYEMTFRASYDPVAGYAVRRMFKEGWKPGHAGTTLADENKDASLGDWSNTLDESEVRKQSKTVTLPKGATGGTFTVSINGKASAAINHDATGTAMKLVLNKVDGGESAKVTGRAGGPYTITGVEGEITADGTNLTGSDTQDISIN | not soluble
MAHHHHHHMCLSNLSYFFGAFEAVEPARSENDGGYASDWLSTLYSSLGLVLAHYLFEDNVEATVEATRILGNISYTNAGRDWMEANHCDEVTVLFLGHEDLRVVYNCCGVLLNLTAASPCRVVQDPELLQTMLSYTSRYTDQDRVEAVTALEEARLRQEQQELQQQRRGGDMKELVSEASSHVAQISDIVEKLLLNVHGVLHASAI | not soluble
YSLAVGGSSPFAEELMQELALTTEQLQVRAQEVLTEILNDYSSLRVKTIDSFFQEVMRAFSHELGLPGGFRIEMEQKAVLEQAVVRLLHSLGEKDTSDVENWIRRLAEDLIEEGRGHNIRREIVSLGDELFKEQLLLLSEEGKLPTKAAIHRYQTEMNKLMEGFEQRRLSIARRAEEIVATAGISFYDFKGGTKGGILEFAKVLKGGEVKPPTKTFMAMAEGDPETTLYAKTTPATTQAAILSAYQSGLKECLTEMATLYLGREWQEYSTAKQSLPFLNRLGIISDLWRQIEGIRQEENKMLISDAPSLLHRIIDGSETPFVYDK | not soluble
MERTVVETRYGRLRGEMNEGVFVWKGIPYAKAPVGERRFLPPEPPDAWDGVREATSFGPVVMQPSDPIFSGLLGRMSEAPSEDGLYLNIWSPAADGKKRPVLFWIHGGAFLFGSGSSPWYDGTAFAKHGDVVVVTINYRMNVFGFLHLGDSFGEAYAQAGNLGILDQVAALRWVKENIAAFGGDPDNITIFGESAGAASVGVLLSLPEASGLFRRAMLQSGSGSLLLRSPETAMAMTERILDKAGIRPGDRERLLSIPAEELLRAALSLGPGVMYGPVVDGRVLRRHPIEALRYGAASGIPILIGVTKDEYNLFTLTDPSWTKLGEKELLDRINREVGPVPEEAIRYYKETAEPSAPTWQTWLRIMTYRVFVEGMLRTADAQAAQGADVYMYRFDYETPVFGGQLKAAHALELPFVFHNLHQPGVANFVGNRPEREAIANEMHYAWLSFARTGDPNGAHLPEAWPAYTNERKAAFVFSAASHVEDDPFGRERAAWQGR | soluble
MVFFTCNACGESVKKIQVEKHVSNCRNCECLSCIDCGKDFWGDDYKSHVKCISEGQKYGGKGYEAK | soluble
MTSIHSPVTRKEDTELKRPDLRGKFVCSSCSQNFQHSASLNRHRQLMHSNEHTCMMCERALNQKETIREHMRNEHNLAQVFTCGCCNWTFASKRQLTEHTKCIQGTGAPGDTIPIAKSINAPGSLIQSTIQGTPPVVKTGRKRPMGGSLSPSSSVSTSISSRDASGSPPPTEEEAERKVLFDNAVDTILQSKFFTYQQITEVDTWVKIIESANTLADTLQRIKKSQKVKAEGPAVESKMIPEKHVKQEIE | not soluble
AADALVRVDGFERTSSSNTVTDIVPGVVLNLTKAAEGTKVTLGVTADTSGLKGNLTAFAAAYNTANTLLKNSSSYNAETRTASALTGDSLVRGLQQQLRGQVSGSISELKALGLTIDKDGVMSFDGGKFDTAIAADGGAAAEALGKDSKFGSGLTKLLDANVNVNNGTLTLRSDSLNKQIKGFEADLDNLDARMEKLTDRYTAQFTAMETMISKMQGATGSLSSLLAI | not soluble
MSYDICIIGSGAGASPIAHQLSKAGAKVLVLEKGPWLTEKEFFKDELTISIHDAYNPKLTDEQHVIEEEYFDENDKPFWQGEKTSDSGWSWWNGNVVGGSSNFMSGYFHRLKPIDFRLKSEFGAISGANVEDWPISYDELEPYYAKVEREVGVSGRVVEHPHQEPRSTDFPYPPIAELPMSSWIDKAAQKIGYHAIPVPRAILSKPAMGRRSCEYSGYCSSYGCASGAKGSGRAALLNNAVASGNCTIQANAKVYKIATDKQGEITGVHYYDKIGRKKSVTAKIYVVACQAVETSRLLLASTGEKFPQGLANNNGQVGKNLLFSGGGTGQGDFNYADLSDKQVGELKQVGPFINRALQDWYQIADKSFTGANAKGQAKGGTIDFLFHQNPIARARGTQWGSDQNGDDKLLWGEDLKQSLKTEFTSYKTLRFEVFNDWLPTDDCFVSLDNEVTDQWGDPVAKVRIGYHDHDLEVGEYLSKKAEKLLEALGAKNVSSSVSGYPSTNLMAGGCRFGNDPKTSVLNKTCQAHEVDNLYVTDGSFMPTGGSVPYTFTIYANAFRVADKIKAHWLTLKSLEHHHHHH | not soluble
MSSITKSRSTKKLSQVIVEQLIETIQSGEFKIGEKIPTELELIEQFDVSRSVIREAITELRSLGFVETRHGIGTFVKEQNIEQNFLLSNASLETINDIVALLELRISLESEAVFLASERRKNKHLEKMKIALNDFEAHISSGENDGTVKADYDFHIAIAEASGNQYFVDFLKYLGEKIIPRARVKSIEQSPENREEYLKTVHHDHVNIYNAILDQDGLLARQMMRAHLSKSIKKFKQ | not soluble
MKKVTKSIKREGSPSDEEYTLEEDPIEFELEKMERGSSNGESEEESQRDQKQADSIIDDMVEQNDQEQEAAGEQDVERENDLRKMYELSLLPPAAIAAQIQQMEKEIYELSQWEARELIRSKHLRIFGNCRRRANKLEHHHHHHH | not soluble
MSDKISFLPPEPIQLLDEDSTEPELDIDSQQENEGPISASNSNDSTSHSNDCGATITRTRPRRSSSINANFSFQKAHVSDCTIVNGDHGTKFAVWRITVFLEPNLKAFAAKRESYKIQTYKRYSDFVRLRENLLTRIKTAKPEKLNCLQIPHLPPSVQWYSSWKYQEVNLNKDWLAKRQRGLEYFLNHIILNSSLVEMTKDILIQFLEPSKRVA | soluble
MDDVRLHAIYQDITRDYLPPASLNHLMLLSKQTQHKLSFKSAPIPDLQPFFKNFTSKTPGSAKESPCSSTAKISSSISISSQCIFNVVILSFVFTSQNLNLPSHPALHNVSPESLNDRLMTQLECANSPRLACELWVGTDKEPILSPNSVSYRVMQPNEFES | soluble
SLNVVLIVEDEILEQEFLKTMVLGELSPEDKVLTTESGIQAVQLAKQHRPNIIIMDLMIAEVDGLTAIQDIRKFLPNACITILSAYSDFSYAQKAINLKVFEYLLKPVKPSAFKEIFKKMLEIAHEESMISEPIEKTFLPLQEEHQSFIQESVTYIQEHFKEKLTLEMTASRVFMNPKYFSRVFKKEMGISFTEFIIQLRIQYACRLLETTNYPAYRISSECGFSDPSYFNRVFCAQLNMTPQTYRKNSQAQQHEG | soluble
MFVRLFYTLRKYGVPVTTRELIDLNRAVAEGLVFADQDEFYQLAKTILVKDERFFDKFDRAIKDYFEGIETFDLDELLKQVQKIPKEWLDLELLEKHLTPEQREALQKAGSLEELMKMLEERLREQHKKHQGGNRMIGTGGTSPFGAFGDHPEGVRIGGPGRKRSAVKVWEQRKYQNLDDDQILGTRQMQLALRRLRKFARQGAADELDVDNTIRETAKQGILNVQMVPERRNRIKVLMLFDVGGSMDSHIAQCEKLFSAAKTEFKTLEYFYFHNCLYDYVWKDNHRRQASRLETWDLFHKYGRDYRVIVVGDASMAPYELRSAGGSVEYMNDEAGEIWLRRLRQHFDKTAWLNPEEEGYWKYTQTIGLIQQLFENHMYPMSLKGIEDMTRYLS | not soluble
MGSDKIHHHHHHAQSIAKGSTPDFSEARTLIKGALENPETKDDAKTWYVAGFIEDQQFSNERTKQVLGQQPDEPVMYEALGSILPYFEKAYELDQLPNEKGKVKPKFTKDIKGILGANHVYYINGGAYYFDQKDYNKAYDFFEQYLKISDMPMFKGEAVAERDSNFMTVQFYAAVAATQLGDSQKAIAALERAKNTDYRASEVYQYLCYEYEQAKDTVNLEKTLEEGLNKFPEEQYFLMSLINNYIYSNRNEKAIEYLNTAIAKDSNNPQLYDVMGRVYETGLKDYAKAEEYFKKALAINPDYIESLSNLGRVYYNQGVNKQGEANMINDAKQYQEELGKAKEFFKQALPYFEKAHQMKPEEREYMTALRGIYYNLNMGDKFDAIEAEMNK | not soluble
MKKVFDVWDVETAKRFLEVIRNETIYYPVLIALHTGMRAGEIVSLKWYDVNFEARIISVVKSVRNNRGLKTSDVKTKTSKRSVYINDVLFSELKNLYETIKPKPDDFVCPRLPTGNLTVGYLSKRFKLLVKRYNFPVIRFHDLRHTFATLMLSLGVNTKIVAEILGHSDIKLTADTYSHVLPTMQESAMKEFSKLWKLEHHHHHH | not soluble
WGTIPGQNFIYAHLNRVIKKYDLDMIYVSGPGHGGQVMVSNSYLDGTYSEVYPNVSRDLNGLKKLCKQFSFPGGISSHMAPETPGSINEGGELGYSLAHSFGAVFDNPDLITACVVGDGEAETGPLATSWQANKFLNPVTDGAVLPILHLNGYKISNPTVLSRIPKDELEKFFEGNGWKPYFVEGEDPETMHKLMAETLDIVTEEILNIQKNARENNDCSRPKWPMIVLRTPKGWTGPKFVDGVPNEGSFRAHQVPLAVDRYHTENLDQLEEWLKSYKPEELFDENYRLIPELEELTPKGNKRMAANLH | not soluble
MEYRLFGQVTRALMDASQAPADDIATRIDALDWNRKVWSALATDCALPENQLPMELRASIISLSLWVGRHSSAVMRKEEDFEPLIEINRMIMQGLAGRADAA | not soluble
MKVSILDYGVIDKEKTPQEALLETRCLAQVADKLGFHRFWVAEHHNIYAFAISSPELLMMHLADHTKQIRIGSGGIMPLHYSSFKIAEWIMTLEALHPNRIDLGIGNSLGTTLVQRALSSIHCKDSYSQVVTELYQYLNPDHLSPLPIFVNPRGNTYPQIWTLSNSLETAELAGQLGLGYTFGIFPYIPKDPITEAKRVSAHYRKAFRPSKLLKIPKLILAVFIVLSDTDEKAEALAKPLDIWMLGQQDFNEFKTYPDVEEARNYHLTEKQREAIAANRSRMVIGSPHTVKKQLDRLIEACQADELLAIPLVPEFANRQRTLELLADLYVTI | not soluble
MIFAYNKEHVGDVLLVIVADDQGAENQVKRVGDVARVSLVEAPETVVAWNIFNASALLGDINGTGQVTLTDEQIEKVNTAIKDAGFSETLEKDDTPKIVVGFVKSCKKHPDSDHLSITQTEVDNGEILQIVCGAPNIKAGQKVVVAKPGAMMPDGLMIWPGVLRGEESFGMICSAKELRLPNAPAKKGILELPFDAEVGSAFAVGE | not soluble
